{"source": "paper PMC11962113", "about": "“An unusual glycerol-3-phosphate dehydrogenase in Sulfolobus acidocaldarius elucidates the diversity of glycerol metabolism across Archaea” (Communications Biology, 2025)", "molecules": {"B1": {"name": "glycerol-3-phosphate dehydrogenase Saci_2032 (His-tagged, recombinant) (enzyme, S. acidocaldarius DSM 639, UniProt Q4J7A2 1-431, looked up)", "chain": "MEIKTSVLVIGGGANGLFTALDLALRGIDVTLVERRDIGSGTSGRFHGLLHSGARYAVTDPESAKECIQENNIISKIAPHAIRDTGGLFLGITKEDLEFLDKFLSSLKKLGIEHKIVDNNQVLQEEPYVNKDLKIAIWVPDKVVYGYDLLSSIAVTGSLNKARIMTYNEVTEFIRDGNSIKGVKVFDKITNQMNLIKSDIIINTSGPWAFKIITMAGLEEIPILPTAGIMAVFGKKVNNAVLNRLRPPSDGDIIVPYQDTSILGTTATIIEDPDNFTISDEDVKMLIKEGSQLVPELSKTRVIRTYASVRPLMRTSEDGRKASRDFTILDHEREDGVSGLISIIGGKFTTSRLVGEKVGDLVSEKLGVRAKSKTKETKLISPSEIDFEKYLEKIGISKIFLKSVMERRGSLDEERYKTVLYLLLSLIARGR", "notes": "GlpA-like FAD-dependent glycerol-3-phosphate dehydrogenase Saci_2032 of Sulfolobus acidocaldarius DSM 639, calculated mass 47.6 kDa; ORF amplified from genomic DNA; also called G3PDH; GlpA-like; source: E. coli Rosetta (DE3), pET15b-saci_2032, purified (Nickel-IDA)"}, "B2": {"name": "glycerol kinase Saci_1117 (enzyme, S. acidocaldarius DSM 639, UniProt Q4J9R1 1-498, looked up)", "chain": "MSKYILAVDEGTTSARALVFDEDLNVISIAQTELTQYFPRPGYVEQNPEEIFEKQVSMIKKAVEKAKIEISQVSAIGIANQRETTIMWDSRSGRPVYNAVVWQDRRTSDITDWLKSNYLNLFKSKTGLIPDPYFSASKIKWILDNVPGVREKAERGEIKFGTVDTYLIWKLTNGKVHVTDYSNASRTMLFNIKKLEWDRDILEILEIPEAILPEVRSSSEVYGYAEPVGNIPISGDAGDQQAALFGQLGFSKGDVKCTYGTGSFILMNSGEEIYDSKDLLTTIAWKIGKDVKYALEGSIFTTGAAVQWVRDGLGLVSSSDEIESLASSVVDNGGVYFVPAFSGLGSPYWDPYARGLIIGISRGTSRGHIARAVLESIAYQVRDVIEVIKKDVGKEFVNVLKVDGGVSKNNLLMQFQADILGIRIVRPRVIETTSMGASMLAGLAVDYWSSLEELKSKWAVDREFIPSLQEDRRERLYKGWKEAVRRTIGWAREVETME", "notes": "Glycerol kinase Saci_1117 of Sulfolobus acidocaldarius DSM 639, 498 amino acids, calculated mass 55.6 kDa; ORF amplified from genomic DNA; The results call the protein C-terminally His-tagged; also called GK; GlpK homologue; source: S. acidocaldarius MW001, homologous overexpression (pSVAmalFX-saci_1117-SH10), purified (Strep-Tactin XT 4Flow column)"}, "B3": {"name": "glycerol-3-phosphate dehydrogenase Saci_1118 (His-tagged, recombinant) (enzyme, S. acidocaldarius DSM 639, UniProt Q4J9Q8 1-428, looked up)", "chain": "MKQNSSVIVIGGGATGLFTALDLSLRGINVTLVERGDIASGTSGKFHGLLHSGARYAVNDPESAKECKQENEVLSKIAPEFVRDTGGVFVGITEDDVNYSQRFLSALNSLGITNKVMDVEELIRREPFINKKSKIAIWVPDKVVYGYDLLATVALTASLNGAKILTYNEVKRVLREGNSVRRVEVKDNISGETKILNGDIIVNTAGPWAFRVIEMAGLGEIPLLPTAGIMVVMKEKLNSMVINRLRPPSDGDIIVPYGDSSIIGTTATIIPDPDNFEISDEDINMLIEEGAYMIPRLKEVKPERAYASVRPLIKNAEDGRGATRDFMIIDHEKVDSLDGLISVIGGKFTTSRLAGEKVSDMVSEKLGIREKSKTATIKLMSELDEKLLEKKRVPKVLVKMIRERKGSLDEDRYSTAMYILLSLLARGE", "notes": "GlpA-like FAD-dependent glycerol-3-phosphate dehydrogenase Saci_1118 of Sulfolobus acidocaldarius DSM 639, calculated mass 46.9 kDa; ORF amplified from genomic DNA; also called G3PDH; GlpA-like; source: E. coli Rosetta (DE3), pET15b-saci_1118, purified (Nickel-IDA)"}, "B4": {"name": "glycerol kinase Saci_2033 (enzyme, S. acidocaldarius DSM 639, UniProt Q4J7A3 1-497, looked up)", "chain": "MAEKYVIAIDEGTTSARAIVFDKELNILGIGQNEFTQYYPQPGYVEHSPEEIWQAQLLAINKALEKAKIDRNNILSIGITNQRETTVMWDTRTGKPIYNAIVWQDRRTAPITDYLKANYLRLIKDRTGLVPDPYFSASKIKWILDNIPNAREKAEKGEIKFGTIDTYLIWKLTNGKAHVTDYSNASRTMLFNIRKLEWDREILEILNIPEAILPDVKPSSEIYGYAEILNSSIPISGDAGDQQAALFGQIAFNQGDVKCTYGTGSFILLNTGSNLVSSNDLLTTIAWGVGKGITYALEGSIFITGAAVQWFRDGLRAIDVSDEIEPLAGSVPDNGGVYFVPAFTGLGAPYWDPYARGLIIGITRGTTKAHIARAILESMAYQTMDVLGIMQRDSGIKIDALKVDGGASKNDLLMQFQADILKMKVVRPKIMETTSMGVAMLAGLSVGYWNSMDELKQKWKIDQVFEPKMDDEYREKLYSGWKEAVRRALGWAKTIGG", "notes": "Glycerol kinase Saci_2033 of Sulfolobus acidocaldarius DSM 639, 497 amino acids, calculated mass 55.3 kDa; ORF amplified from genomic DNA; also called GK; GlpK"}}, "key": {"[1]": {"molecular_target": "T1, Saci_2032 (G3PDH) (Sulfolobus acidocaldarius, UniProt Q4J7A2)", "T1 construct": "full length, N-terminal His tag (pET15b), E. coli Rosetta (DE3); homodimer with 2 FAD; without CoxG", "assay": "absorption spectrum of bound FAD, […] nm, after SDS denaturation", "type": "binding", "settings": "two FAD per homodimer; non-covalent per family; reduced by G3P at 70 °C"}, "[2]": {"molecular_target": "T2, Saci_1118 (G3PDH) (Sulfolobus acidocaldarius, UniProt Q4J9Q8)", "T2 construct": "full length, N-terminal His tag (pET15b), E. coli Rosetta (DE3); homodimer with 2 FAD; without CoxG", "assay": "absorption spectrum of bound FAD, […] nm, after SDS denaturation", "type": "binding", "settings": "two FAD per homodimer; non-covalent per family; reduced by G3P at 70 °C"}, "[3]": {"substrate": "COC1=C(OC)C(=O)C(CC=C(C)C)=C(C)C1=O", "assay": "purified protein", "type": "biochemical, Sulfolobus acidocaldarius", "settings": "0.4 mM G3P, no DCPIP, 50 mM HEPES-KOH pH 6.5, 100 mM KCl, 70 °C"}, "[4]": {"substrate": "O=P(O)(O)OC[C@H](O)CO", "assay": "purified protein", "type": "biochemical, Sulfolobus acidocaldarius", "settings": "0.06 mM DCPIP as electron acceptor, 50 mM HEPES-KOH pH 6.5, 100 mM KCl, 70 °C"}, "[5]": {"molecular_target": "the molecule itself", "assay": "SEC; Superose 6 Increase 10/300 GL, 50 mM TRIS-HCl pH 7.5, 250 mM NaCl; GKs 50 µg in 200 µL, G3PDHs 19 mg Saci_2032 or 6 mg Saci_1118 in 500 µL; calibrated with LMW and HMW gel filtration kits; native mass compared with subunit mass"}, "[6]": {"substrate": "Nc1ncnc2c1ncn2[C@@H]1O[C@H](COP(=O)(O)OP(=O)(O)OP(=O)(O)O)[C@@H](O)[C@H]1O", "assay": "purified protein", "type": "biochemical, Sulfolobus acidocaldarius", "settings": "2 mM glycerol"}, "[7]": {"substrate": "OCC(O)CO", "assay": "purified protein", "type": "biochemical, Sulfolobus acidocaldarius"}, "[8]": {"settings": "1 mM ATP, 1 mM MgCl2, 0.1 M TRIS-HCl pH 7, 50 °C"}, "[9]": {"settings": "5 mM ATP, 5 mM MgCl2, 0.1 M MOPS-KOH pH 6.5, 50 °C"}}, "data": [{"molecule": "Cc1cc2nc3c(=O)[nH]c(=O)nc-3n(C[C@H](O)[C@H](O)[C@H](O)COP(=O)(O)OP(=O)(O)OC[C@H]3O[C@@H](n4cnc5c(N)ncnc54)[C@H](O)[C@@H]3O)c2cc1C", "note": "[FAD]", "values": [{"measurement": "absorption spectrum of bound FAD, 450 nm, after SDS denaturation", "setting": "[1]", "value": "a FAD content of two per homodimer was determined for both enzymes"}, {"measurement": "absorption spectrum of bound FAD, 450 nm, after SDS denaturation", "setting": "[2]", "value": "a FAD content of two per homodimer was determined for both enzymes"}]}, {"molecule": "B1", "values": [{"measurement": "Km", "setting": "[3]", "value": "179 ± 75", "unit": "µM"}, {"measurement": "Vmax", "setting": "[3]", "value": 21.1, "unit": "µmol/min/mg"}, {"measurement": "kcat/Km", "setting": "[3]", "value": "128000 ± 58900", "unit": "M⁻¹ s⁻¹"}, {"measurement": "Km", "setting": "[4]", "value": "55 ± 9", "unit": "µM"}, {"measurement": "Vmax", "setting": "[4]", "value": 44.5, "unit": "µmol/min/mg"}, {"measurement": "kcat/Km", "setting": "[4]", "value": "642000 ± 111000", "unit": "M⁻¹ s⁻¹"}, {"measurement": "stoichiometry N", "setting": "[5]", "value": 2}]}, {"molecule": "B2", "values": [{"measurement": "Km", "setting": "[6]; 0.1 M TRIS-HCl pH 7, 50 °C", "value": "205 ± 24", "unit": "µM"}, {"measurement": "Vmax", "setting": "[6]; 0.1 M TRIS-HCl pH 7, 50 °C", "value": 50.8, "unit": "µmol/min/mg"}, {"measurement": "kcat/Km", "setting": "[6]; 0.1 M TRIS-HCl pH 7, 50 °C", "value": "229000 ± 28400", "unit": "M⁻¹ s⁻¹"}, {"measurement": "Km", "setting": "[7]; [8]", "value": "24 ± 1", "unit": "µM"}, {"measurement": "Vmax", "setting": "[7]; [8]", "value": 45.7, "unit": "µmol/min/mg"}, {"measurement": "kcat/Km", "setting": "[7]; [8]", "value": "6.4e+06 ± 507000", "unit": "M⁻¹ s⁻¹"}, {"measurement": "stoichiometry N", "setting": "[5]", "value": 2}]}, {"molecule": "B3", "values": [{"measurement": "Km", "setting": "[3]", "value": "86 ± 19", "unit": "µM"}, {"measurement": "Vmax", "setting": "[3]", "value": 18.7, "unit": "µmol/min/mg"}, {"measurement": "kcat/Km", "setting": "[3]", "value": "170000 ± 39700", "unit": "M⁻¹ s⁻¹"}, {"measurement": "Km", "setting": "[4]", "value": "19 ± 3", "unit": "µM"}, {"measurement": "Vmax", "setting": "[4]", "value": 19.6, "unit": "µmol/min/mg"}, {"measurement": "kcat/Km", "setting": "[4]", "value": "808000 ± 131000", "unit": "M⁻¹ s⁻¹"}, {"measurement": "stoichiometry N", "setting": "[5]", "value": 2}]}, {"molecule": "B4", "values": [{"measurement": "Km", "setting": "[6]; 0.1 M MOPS-KOH pH 6.5, 50 °C", "value": "174 ± 19", "unit": "µM"}, {"measurement": "Vmax", "setting": "[6]; 0.1 M MOPS-KOH pH 6.5, 50 °C", "value": 91, "unit": "µmol/min/mg"}, {"measurement": "kcat/Km", "setting": "[6]; 0.1 M MOPS-KOH pH 6.5, 50 °C", "value": "485000 ± 57100", "unit": "M⁻¹ s⁻¹"}, {"measurement": "Km", "setting": "[7]; [9]", "value": "24 ± 4", "unit": "µM"}, {"measurement": "Vmax", "setting": "[7]; [9]", "value": 88.2, "unit": "µmol/min/mg"}, {"measurement": "kcat/Km", "setting": "[7]; [9]", "value": "1.31e+07 ± 2.2e+06", "unit": "M⁻¹ s⁻¹"}, {"measurement": "stoichiometry N", "setting": "[5]", "value": 2}]}]}
